Laboratory results from paper PMC11093223, “Cargo selective vesicle tethering: The structural basis for binding of specific cargo proteins by the Golgi tether component TBC1D23” (Science Advances, 2024).

Columns and labels:
[1] = target: TBC1D23 C-terminal domain (mouse) (UniProt Q8K0F1); experiment: ITC; peptide (0.8 to 5 mM) titrated into 100 μM TBC1D23 C-terminal domain, 20°C, 100 mM NaCl, 100 mM tris pH 7.4, 1 mM TCEP, Nano ITC
[2] = target: Mouse TBC1D23 (559-684), C-terminal domain (mouse) (UniProt Q8K0F1); experiment: ITC; peptide (0.8 to 5 mM) titrated into 100 uM TBC1D23 C-terminal domain, 20 injections of 2.4 ul; 20°C; 100 mM NaCl, 100 mM tris pH 7.4, 1 mM TCEP; mean of three runs
Chain of Mouse TBC1D23 (559-684), C-terminal domain (mouse) (Q8K0F1 559-684): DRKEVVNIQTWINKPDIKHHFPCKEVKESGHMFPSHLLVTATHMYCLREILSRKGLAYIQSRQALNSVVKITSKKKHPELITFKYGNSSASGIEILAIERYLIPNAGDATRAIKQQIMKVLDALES

Chain of TBC1D23 C-terminal domain (mouse) (Q8K0F1 559-684): as above

Row | Substance | Kd [1] | stoichiometry N [1] | Kd [2]
1 | CPD peptide (acidic TLY region, ITC) | 10.6 µM | 1 | –
2 | FAM174C peptide (TLY-like motif) | 16 µM | – | –
3 | FAM174C peptide with the acidic TLY motif | – | – | 15.7 µM
4 | KIAA0319 peptide (acidic TLY motif of the tail) | 35 µM | – | –
5 | KIAA0319 peptide with the acidic TLY motif | – | – | 35.2 µM
6 | NPDC1 peptide (acidic TLY motif of the tail) | 3 µM | – | –
7 | NPDC1 peptide with the acidic TLY motif | – | – | 2.9 µM
